In publication PMC6463862, “Adaptive and degenerative evolution of the S-Phase Kinase-Associated Protein 1-Like family in Arabidopsis thaliana” (PeerJ, 2019):

Legend:
[1] = molecular target: DIF (Arabidopsis (cDNA clone from the Arabidopsis Biological Resource Center)); assay: two-hybrid; F-box proteins as GAL4-BD baits (pGBK-T7, AH109), ASK1/2 as GAL4-AD preys (pGAD-T7, Y187), mated; growth on SD-Leu-Trp-Ade-His + X-alpha-gal at 30 °C normalised to growth on SD-Leu-Trp, and beta-galactosidase activity assay (two independent assays); results told together
JMJ22 = molecular target: T1, JMJ22 (Arabidopsis (cDNA clone from the …, UniProt Q67XX3 1-502)); assay: as above; conditions: partners not purified
T1 construct: F-box protein JMJ22; CDS PCR amplified from an ABRC cDNA clone and ligated in frame to the 3' end of the GAL4-BD CDS in pGBK-T7 (bait); source: yeast two-hybrid fusion
T1 sequence (looked up): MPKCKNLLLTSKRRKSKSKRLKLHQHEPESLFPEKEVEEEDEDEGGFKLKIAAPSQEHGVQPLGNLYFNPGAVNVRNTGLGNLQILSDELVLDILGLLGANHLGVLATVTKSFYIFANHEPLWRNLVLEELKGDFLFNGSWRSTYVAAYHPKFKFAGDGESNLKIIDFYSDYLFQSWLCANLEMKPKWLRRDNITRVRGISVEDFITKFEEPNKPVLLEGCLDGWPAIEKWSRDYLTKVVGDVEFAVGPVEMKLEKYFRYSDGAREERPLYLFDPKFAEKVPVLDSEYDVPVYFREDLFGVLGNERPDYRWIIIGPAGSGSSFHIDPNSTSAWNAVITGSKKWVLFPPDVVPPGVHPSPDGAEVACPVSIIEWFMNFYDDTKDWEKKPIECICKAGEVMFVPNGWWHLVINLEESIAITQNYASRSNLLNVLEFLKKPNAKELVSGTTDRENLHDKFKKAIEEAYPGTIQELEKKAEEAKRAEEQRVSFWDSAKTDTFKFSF

B1: Arabidopsis Skp1-Like 1 (natural protein, A. thaliana, UniProt Q39255 1-160, looked up)
chain: MSAKKIVLKSSDGESFEVEEAVALESQTIAHMVEDDCVDNGVPLPNVTSKILAKVIEYCKRHVEAAASKAEAVEGAATSDDDLKAWDADFMKIDQATLFELILAANYLNIKNLLDLTCQTVADMIKGKTPEEIRTTFNIKNDFTPEEEEEVRRENQWAFE
notes: ASK1 (A. thaliana Skp1-Like 1); CDS PCR amplified from an ABRC cDNA clone and ligated in frame to the 3' end of the GAL4-AD CDS in pGAD-T7 (prey); also called ASK1; source: yeast two-hybrid fusion
fold interaction strength against ASK2 [1]: > 2 fold
fold interaction strength against ASK2 (JMJ22): > 2 fold
